The values that follow come from US20230395193A1 (priority 2020, published 2023).

For the test, the system named is SARS-CoV-1, MERS-CoV and SARS-CoV-2 proteins in HEK293T cells. Set-up: species or system human.

B1: M-Q8NDZ4 (protein, UniProt Q8NDZ4 36-430, looked up)
Divergent protein kinase …: LASWQRNELTDRRFLQLNKCPACFGTSWCRRFLNGQVVFEAWGRLRLLDFLNVKNVYFAQYGEPREGGRRRVVLKRLGSQRELAQLDQSICKRATGRPRCDLLQAMPRTEFARLNGDVRLLTPEAVEGWSDLVHCPSQRLLDRLVRRYAETKDSGSFLLRNLKDSERMQLLLTLAFNPEPLVLQSFPSDEGWPFAKYLGACGRMVAVNYVGEELWSYFNAPWEKRVDLAWQLMEIAEQLTNNDFEFALYLLDVSFDNFAVGPRDGKVIIVDAENVLVADKRLIRQNKPENWDVWYESKFDDCDKEACLSFSKEILCARATVDHNYYAVCQNLLSRHATWRGTSGGLLHDPPSEIAKDGRLEALLDECANPKKRYGRFQAAKELREYLAQLSNNVR
For B1, the MIST_MERS is on record as 0.7477, the MIST_SARS1 is listed as 0, the MIST_SARS2 stood at 0 and the Saint_MERS turned out to be 1. The molecule further registered a Saint_SARS1 of 0 and a Saint_SARS2 of 0.

B2: M-Q86UL3 (protein, UniProt Q86UL3 38-456, looked up)
Glycerol-3-phosphate …: VSFGIRKLYMKSLLKIFAWATLRMERGAKEKNHQLYKPYTNGIIAKDPTSLEEEIKEIRRSGSSKALDNTPEFELSDIFYFCRKGMETIMDDEVTKRFSAEELESWNLLSRTNYNFQYISLRLTVLWGLGVLIRYCFLLPLRIALAFTGISLLVVGTTVVGYLPNGRFKEFMSKHVHLMCYRICVRALTAIITYHDRENRPRNGGICVANHTSPIDVIILASDGYYAMVGQVHGGLMGVIQRAMVKACPHVWFERSEVKDRHLVAKRLTEHVQDKSKLPILIFPEGTCINNTSVMMFKKGSFEIGATVYPVAIKYDPQFGDAFWNSSKYGMVTYLLRMMTSWAIVCSVWYLPPMTREADEDAVQFANRVKSAIARQGGLVDLLWDGGLKREKVKDTFKEEQQKLYSKMIVGNHKDRSRS
modifications: interactor of M protein
On to B2, for which the MIST_MERS was determined as 0.2998, the MIST_SARS1 is listed as 0.8496, the MIST_SARS2 amounted to 0.485 and the Saint_MERS worked out at 0.31. The Saint_SARS1 is recorded as 1 and the Saint_SARS2 is 0.96.

B3: M-Q6AI08 (protein, UniProt Q6AI08 1-1181, looked up)
HEAT repeat-containing …: MAAVQVVGSWPSVQPREAPREAIPERGNGFRLLSARLCALRPDDSSSARTEIHLLFDQLISENYSEGSGVAPEDVSALLVQACRLVPLNQNHLVSKVSQLIHHLLNRLQVIVDEQHLDFLLAYTISAIHQCSSWTHREILQALAALVYCNGSKCQKYLPELLGNTGLLMKLSDLAQSDPEVRRAAVHCMANLCLSVPGQPYLEEPYQNVCFQAFLTILQSPKSSDMDDITFCMLLQNALKGIQSLLNGGRMKLTQTDELGALLAVLKKFMFHGLPGLNIEMPTVLYPTPLPQYDGRTPIKPQQSESSASRPTLNKKKKSKVKPKKIQQGEEEEKESSGEIEAAPVTGTGRVNLHEGNTWCPSSLGVQSLPLDGSGAAEKDGVSSSFSSSSWKRVSSSESDFSDAEGGMQSKMRSYQAKVRQGALVCFLSTIKSIEKKVLYGYWSAFIPDTPELGSPQSVSLMTLTLKDPSPKTRACALQVLSAILEGSKQFLSVAEDTSDHRRAFTPFSVMIACSIRELHRCLLLALVAESSSQTVTQIIKCLANLVSNAPYDRLKLSLLTKVWNQIKPYIRHKDVNVRVSSLTLLGAIVSTHAPLPEVQLLLQQPCSSGLGNSNSATPHLSPPDWWKKAPAGPSLEETSVSSPKGSSEPCWLIRLCISIVVLPKEDSCSGSDAGSAAGSTYEPSPMRLEALQVLTLLARGYFSMTQAYLMELGEVICKCMGEADPSIQLHGAKLLEELGTGLIQQYKPDSTAAPDQRAPVFLVVMFWTMMLNGPLPRALQNSEHPTLQASACDALSSILPEAFSNLPNDRQMLCITVLLGLNDSKNRLVKAATSRALGVYVLFPCLRQDVIFVADAANAILMSLEDKSLNVRAKAAWSLGNLTDTLIVNMETPDPSFQEEFSGLLLLKMLRSAIEASKDKDKVKSNAVRALGNLLHFLQPSHIEKPTFAEIIEESIQALISTVLTEAAMKVRWNACYAMGNVFKNPALPLGTAPWTSQAYNALTSVVTSCKNFKVRIRSAAALSVPGKREQYGSVDQYARIWNALVTALQKSEDTIDFLEFKYCVSLRTQICQALIHLLSLASASDLPCMKETLELSGNMVQSYILQFLKSGAEGDDTGAPHSPQERDQMVRMALKHMGSIQAPTGDTARRAIMGFLEEILAVCFDSSGSQGALPGLTNQ
modifications: interaction partner of SARS-CoV-2 M
Take B3: the MIST_MERS is reported as 0, the MIST_SARS1 is 0.8284, the MIST_SARS2 is 0 and the Saint_MERS is given as 0. The same molecule gave a Saint_SARS1 of 0.97 and a Saint_SARS2 of 0.

B4: M-Q6PJG6 (protein, UniProt Q6PJG6 1-821, looked up)
Integrator complex assembly …: MDPECAQLLPALCAVLVDPRQPVADDTCLEKLLDWFKTVTEGESSVVLLQEHPCLVELLSHVLKVQDLSSGVLSFSLRLAGTFAAQENCFQYLQQGELLPGLFGEPGPLGRATWAVPTVRSGWIQGLRSLAQHPSALRFLADHGAVDTIFSLQGDSSLFVASAASQLLVHVLALSMRGGAEGQPCLPGGDWPACAQKIMDHVEESLCSAATPKVTQALNVLTTTFGRCQSPWTEALWVRLSPRVACLLERDPIPAAHSFVDLLLCVARSPVFSSSDGSLWETVARALSCLGPTHMGPLALGILKLEHCPQALRTQAFQVLLQPLACVLKATVQAPGPPGLLDGTADDATTVDTLLASKSSCAGLLCRTLAHLEELQPLPQRPSPWPQASLLGATVTVLRLCDGSAAPASSVGGHLCGTLAGCVRVQRAALDFLGTLSQGTGPQELVTQALAVLLECLESPGSSPTVLKKAFQATLRWLLSSPKTPGCSDLGPLIPQFLRELFPVLQKRLCHPCWEVRDSALEFLTQLSRHWGGQADFRCALLASEVPQLALQLLQDPESYVRASAVTAMGQLSSQGLHAPTSPEHAEARQSLFLELLHILSVDSEGFPRRAVMQVFTEWLRDGHADAAQDTEQFVATVLQAASRDLDWEVRAQGLELALVFLGQTLGPPRTHCPYAVALPEVAPAQPLTEALRALCHVGLFDFAFCALFDCDRPVAQKSCDLLLFLRDKIASYSSLREARGSPNTASAEATLPRWRAGEQAQPPGDQEPEAVLAMLRSLDLEGLRSTLAESSDHVEKSPQSLLQDMLATGGFLQGDEADCY
As to B4, the MIST_MERS is given as 0, the MIST_SARS1 was found to be 0.9911, the MIST_SARS2 came to 0 and the Saint_MERS is reported as 0. In addition, the Saint_SARS1 came to 1 and the Saint_SARS2 stood at 0.

B5: M-Q7RTS9 (protein, UniProt Q7RTS9 2-669, looked up)
Dymeclin: GSNSSRIGDLPKNEYLKKLSGTESISENDPFWNQLLSFSFPAPTSSSELKLLEEATISVCRSLVENNPRTGNLGALIKVFLSRTKELKLSAECQNHIFIWQTHNALFIICCLLKVFICQMSEEELQLHFTYEEKSPGNYSSDSEDLLEELLCCLMQLITDIPLLDITYEISVEAISTMVVFLSCQLFHKEVLRQSISHKYLMRGPCLPYTSKLVKTLLYNFIRQEKPPPPGAHVFPQQSDGGGLLYGLASGVATGLWTVFTLGGVGSKAAASPELSSPLANQSLLLLLVLANLTDASDAPNPYRQAIMSFKNTQDSSPFPSSIPHAFQINFNSLYTALCEQQTSDQATLLLYTLLHQNSNIRTYMLARTDMENLVLPILEILYHVEERNSHHVYMALIILLILTEDDGFNRSIHEVILKNITWYSERVLTEISLGSLLILVVIRTIQYNMTRTRDKYLHTNCLAALANMSAQFRSLHQYAAQRIISLFSLLSKKHNKVLEQATQSLRGSLSSNDVPLPDYAQDLNVIEEVIRMMLEIINSCLTNSLHHNPNLVYALLYKRDLFEQFRTHPSFQDIMQNIDLVISFFSSRLLQAGAELSVERVLEIIKQGVVALPKDRLKKFPELKFKYVEEEQPEEFFIPYVWSLVYNSAVGLYWNPQDIQLFTMDSD
modifications: interactor of viral M protein
In turn, B5 yielded an MIST_MERS of 0, an MIST_SARS1 of 0.9893, an MIST_SARS2 of 0 and a Saint_MERS of 0. The Saint_SARS1 is on record as 0.97 and the Saint_SARS2 is reported as 0.
